Data as given in article PMC4782060, “Mechanism of intermediate filament recognition by plakin repeat domains revealed by envoplakin targeting of vimentin” (Nature Communications, 2016).

B1: envoplakin PRD K1901E (domain or fragment, human, UniProt Q92817 1822-2014, looked up)
chain: DDSFPIAGIYDTTTDNKCSIKTAVAKNMLDPITGQKLLEAQAATGGIVDLLSRERYSVHKAMERGLIENTSTQRLLNAQEAFTGIEDPVTKKRLSVGEAVQKGWMPRESVLPHLQVQHLTGGLIDPKRTGRIPIQQALLSGMISEELAQLLQDESSYEKDLTDPISKERLSYKEAMGRCRKDPLSGLLLLPAA
notes: envoplakin, human, plakin repeat domain, residues Asp1822-Ala2014, mutant K1901E; 15N-labelled for NMR; source: E. coli BL21(DE3), purified (HisTrap, TEV cleavage, S75 size exclusion)
B2: envoplakin PRD R1914E (domain or fragment, human, UniProt Q92817 1822-2014, looked up)
chain: DDSFPIAGIYDTTTDNKCSIKTAVAKNMLDPITGQKLLEAQAATGGIVDLLSRERYSVHKAMERGLIENTSTQRLLNAQKAFTGIEDPVTKKELSVGEAVQKGWMPRESVLPHLQVQHLTGGLIDPKRTGRIPIQQALLSGMISEELAQLLQDESSYEKDLTDPISKERLSYKEAMGRCRKDPLSGLLLLPAA
notes: envoplakin, human, plakin repeat domain, residues Asp1822-Ala2014, mutant R1914E; 15N-labelled for NMR; also called K1914E (as printed once in the text); source: E. coli BL21(DE3), purified (HisTrap, TEV cleavage, S75 size exclusion)
B3: envoplakin PRD K1847E (control mutation) (domain or fragment, human, UniProt Q92817 1822-2014, looked up)
chain: DDSFPIAGIYDTTTDNKCSIKTAVAENMLDPITGQKLLEAQAATGGIVDLLSRERYSVHKAMERGLIENTSTQRLLNAQKAFTGIEDPVTKKRLSVGEAVQKGWMPRESVLPHLQVQHLTGGLIDPKRTGRIPIQQALLSGMISEELAQLLQDESSYEKDLTDPISKERLSYKEAMGRCRKDPLSGLLLLPAA
notes: envoplakin, human, plakin repeat domain, residues Asp1822-Ala2014, mutant K1847E; 15N-labelled for NMR; source: E. coli BL21(DE3), purified (HisTrap, TEV cleavage, S75 size exclusion)

Tests used:
Details in all cases: both partners purified
[1] = target: T1, wild-type human envoplakin plakin repeat domain (PRD), residues Asp1822-Ala2014 (human, UniProt Q92817 1822-2014); test: SPR; His-tagged vimentin^ROD (wild type or mutant) immobilised on nickel-coated chips, Biacore 3000; envoplakin PRD 0-100 μM flowed over; 150 mM NaCl, 10 mM Hepes, 3 mM EDTA, 0.005% Surfactant P20, pH 7.4
T1 construct: envoplakin, human, plakin repeat domain, residues Asp1822-Ala2014; vector pProEX-HTC; also called envoplakin PRD; WT; source: E. coli BL21(DE3), purified (HisTrap, TEV cleavage, S75 size exclusion)
T1 sequence (looked up): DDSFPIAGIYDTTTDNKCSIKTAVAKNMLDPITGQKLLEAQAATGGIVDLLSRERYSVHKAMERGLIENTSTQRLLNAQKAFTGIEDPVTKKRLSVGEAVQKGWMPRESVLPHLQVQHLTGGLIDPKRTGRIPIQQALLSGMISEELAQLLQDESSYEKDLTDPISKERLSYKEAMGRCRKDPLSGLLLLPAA

[2] = target: B1; test: as above
[3] = target: B3; test: as above
[4] = target: B2; test: as above
[5] = target: T2, envoplakin PRD K2002E (control mutation) (human, UniProt Q92817 1822-2014, K2002E); test: as above
T2 construct: envoplakin, human, plakin repeat domain, residues Asp1822-Ala2014, mutant K2002E; 15N-labelled for NMR; source: E. coli BL21(DE3), purified (HisTrap, TEV cleavage, S75 size exclusion)
T2 sequence (looked up): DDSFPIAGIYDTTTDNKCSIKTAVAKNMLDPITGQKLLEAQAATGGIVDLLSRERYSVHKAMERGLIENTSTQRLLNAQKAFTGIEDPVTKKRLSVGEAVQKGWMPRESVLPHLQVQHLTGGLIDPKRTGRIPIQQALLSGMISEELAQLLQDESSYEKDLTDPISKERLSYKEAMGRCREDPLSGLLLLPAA

[6] = target: T3, full-length human vimentin (residues Met1-Glu466) (human, UniProt P08670 1-466); test: NMR titration; unlabelled full-length vimentin (10, 50, 100, 200 μM) added to 100 μM 15N-labelled wild-type or mutant envoplakin PRD; 1H,15N HSQC peak intensities; 20 mM Tris-Cl, pH 7, 1 mM DTT, no salt, 298 K
T3 construct: vimentin, human, residues Met1-Glu466; Vector pET21a+; also called vimentin^FL; full-length vimentin
T3 sequence (P08670 whole entry, the tested form may be a part): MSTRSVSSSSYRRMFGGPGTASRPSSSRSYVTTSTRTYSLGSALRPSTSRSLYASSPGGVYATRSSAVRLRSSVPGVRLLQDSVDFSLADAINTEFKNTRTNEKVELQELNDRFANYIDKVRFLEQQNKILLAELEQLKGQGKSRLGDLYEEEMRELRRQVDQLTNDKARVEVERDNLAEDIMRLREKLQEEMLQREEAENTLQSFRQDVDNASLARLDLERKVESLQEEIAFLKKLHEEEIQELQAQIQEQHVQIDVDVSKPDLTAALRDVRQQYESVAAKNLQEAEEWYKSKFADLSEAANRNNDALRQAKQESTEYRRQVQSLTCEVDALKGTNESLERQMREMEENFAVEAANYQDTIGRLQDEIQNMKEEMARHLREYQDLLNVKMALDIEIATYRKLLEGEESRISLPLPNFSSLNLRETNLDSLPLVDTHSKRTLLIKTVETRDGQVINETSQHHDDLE

| Binder | Kd [1] [µM] | binding result [6] | further results |
| --- | --- | --- | --- |
| vimentin^ROD D112K (domain or fragment, vimentin, human, rod residues 99-249, mutant D112K) not shown | 106 ± 45.6 | – | – |
| vimentin^ROD D119K (domain or fragment, vimentin, human, rod residues 99-249, mutant D119K) not shown | 48.4 ± 5.5 | – | – |
| vimentin^ROD construct, vimentin residues 99-249 (coils 1A and 1B of the central rod domain) (domain or fragment, vimentin, human, rod residues 99-249, coils 1A and 1B; Vector pET21a+; His tag retained for SPR; also called WT; envoplakin^ROD (as printed once in the text)) not shown | 19.1 ± 1.3 | – | Kd [2]: 69.3 ± 10.6 µM; Kd [3]: 26.5 ± 2 µM; Kd [4]: 132 ± 34.7 µM; Kd [5]: 14.5 ± 0.4 µM |
| vimentin^ROD double mutant D112K/D119K (domain or fragment, vimentin, human, rod residues 99-249, double mutant D112K/D119K) not shown | 1500 ± 139 | – | – |
| envoplakin PRD R1895E (domain or fragment, human, UniProt Q92817 1822-2014, looked up, envoplakin, human, plakin repeat domain, residues Asp1822-Ala2014, mutant R1895E; 15N-labelled for NMR; source: E. coli BL21(DE3), purified (HisTrap, TEV cleavage, S75 size exclusion)) DDSFPIAGIYDTTTDNKCSIKTAVAKNMLDPITGQKLLEAQAATGGIVDLLSRERYSVHKAMERGLIENTSTQELLNAQKAFTGIEDPVTKKRLSVGEAVQKGWMPRESVLPHLQVQHLTGGLIDPKRTGRIPIQQALLSGMISEELAQLLQDESSYEKDLTDPISKERLSYKEAMGRCRKDPLSGLLLLPAA | – | binds | – |
| B1 | – | binds | – |
| B2 | – | binds | – |
| envoplakin PRD R1952A (domain or fragment, human, UniProt Q92817 1822-2014, looked up, envoplakin, human, plakin repeat domain, residues Asp1822-Ala2014, mutant R1952A; 15N-labelled for NMR; source: E. coli BL21(DE3), purified (HisTrap, TEV cleavage, S75 size exclusion)) DDSFPIAGIYDTTTDNKCSIKTAVAKNMLDPITGQKLLEAQAATGGIVDLLSRERYSVHKAMERGLIENTSTQRLLNAQKAFTGIEDPVTKKRLSVGEAVQKGWMPRESVLPHLQVQHLTGGLIDPKRTGAIPIQQALLSGMISEELAQLLQDESSYEKDLTDPISKERLSYKEAMGRCRKDPLSGLLLLPAA | – | binds | – |
| envoplakin PRD K1994E (domain or fragment, human, UniProt Q92817 1822-2014, looked up, envoplakin, human, plakin repeat domain, residues Asp1822-Ala2014, mutant K1994E; 15N-labelled for NMR; source: E. coli BL21(DE3), purified (HisTrap, TEV cleavage, S75 size exclusion)) DDSFPIAGIYDTTTDNKCSIKTAVAKNMLDPITGQKLLEAQAATGGIVDLLSRERYSVHKAMERGLIENTSTQRLLNAQKAFTGIEDPVTKKRLSVGEAVQKGWMPRESVLPHLQVQHLTGGLIDPKRTGRIPIQQALLSGMISEELAQLLQDESSYEKDLTDPISKERLSYEEAMGRCRKDPLSGLLLLPAA | – | binds | – |
| envoplakin PRD K1988E (control mutation) (domain or fragment, human, UniProt Q92817 1822-2014, looked up, envoplakin, human, plakin repeat domain, residues Asp1822-Ala2014, mutant K1988E; 15N-labelled for NMR; source: E. coli BL21(DE3), purified (HisTrap, TEV cleavage, S75 size exclusion)) DDSFPIAGIYDTTTDNKCSIKTAVAKNMLDPITGQKLLEAQAATGGIVDLLSRERYSVHKAMERGLIENTSTQRLLNAQKAFTGIEDPVTKKRLSVGEAVQKGWMPRESVLPHLQVQHLTGGLIDPKRTGRIPIQQALLSGMISEELAQLLQDESSYEKDLTDPISEERLSYKEAMGRCRKDPLSGLLLLPAA | – | binds | – |
| envoplakin PRD R1990E (control mutation) (domain or fragment, human, UniProt Q92817 1822-2014, looked up, envoplakin, human, plakin repeat domain, residues Asp1822-Ala2014, mutant R1990E; 15N-labelled for NMR; source: E. coli BL21(DE3), purified (HisTrap, TEV cleavage, S75 size exclusion)) DDSFPIAGIYDTTTDNKCSIKTAVAKNMLDPITGQKLLEAQAATGGIVDLLSRERYSVHKAMERGLIENTSTQRLLNAQKAFTGIEDPVTKKRLSVGEAVQKGWMPRESVLPHLQVQHLTGGLIDPKRTGRIPIQQALLSGMISEELAQLLQDESSYEKDLTDPISKEELSYKEAMGRCRKDPLSGLLLLPAA | – | binds | – |
| B3 | – | binds | – |
